± gives the uncertainty stated by the source.
Assay: self-splicing fitness, log relative to wild type (ln ratio); higher = more splicing; Tetrahymena group I intron in knt gene, E. coli kanamycin selection, DiMSum; sequences stand for … in CUCUCU…GGAGGGAAAAGUUAUCAGGCAUGCACCUGGUAGCUAGUCUUUAAACCAAUAGAUUGCAUCGGUUUAAAAGGCAAGACCGUCAAAUUGCGGGAAAGGGGUCAACAGCCGUUCAGUACCAAGUCUCAGGGGAAACUUUGAGAUGGCCUUGCAAAGGGUAUGGUAAUAAGCUGACGGACAUGGUCCUAACCACGCAGCCAAGUCCUAAGUCAACAGAUCUUCUGUUGAUAUGGAUGCAGUUCACAGACUAAAUGUCGGUCGGGGAAGAUGUAUUCUUCUCAUAAGAUAUAGUCGGACCUCUCCUUAAUGGGAGCUAGCGGAUGAAGUGAUGCAACACUGGAGCCGCUGGGAACUAAUUUGUAUGCGAAAGUAUAUUGAUUAGUUUUGGAGUACUCGUGGUCG
Outline: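 DiMSum derived fitness as the error-weighted combination of fold changes across replicates, kanamycin versus no kanamycin, normalised to wild type. E. coli BL21(DE3) held the library, which randomised all eight P1ex-region intron nucleotides within the knt kanamycin-resistance gene on pET-22b(+). Six replicate transformations grew overnight at 37°C or 30°C on LB agar with or without 25 μg/mL kanamycin, also containing 100 μg/mL carbenicillin, 50 μM IPTG and 0.2% rhamnose, and pooled colonies were amplicon-sequenced on an Illumina HiSeq 2500.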

Sequence | self-splicing fitness (ln) (30 °C) | self-splicing fitness (ln) (37 °C)
AUGCAGCAAUAUUACGUUAC | -3.57 ± 0.3 | -1.54 ± 0.22
CUCGAGCAAUAUUACGAUCG | – | -1.71 ± 0.28
UAGUAGCAAUAUUACGGAUC | -2.87 ± 0.11 | -0.854 ± 0.079
GGGCAGCAAUAUUACGAGGG | -3.93 ± 0.34 | -2.39 ± 0.24
AGUGAGCAAUAUUACGGCCU | -0.495 ± 0.13 | 0.416 ± 0.15
UCAUAGCAAUAUUACGGGGG | -2.69 ± 0.19 | -2.27 ± 0.21
AUUUAGCAAUAUUACGCGGC | – | -2.08 ± 0.5
GUAUAGCAAUAUUACGGGGA | -2.52 ± 0.22 | -2.83 ± 0.38
AGCCAGCAAUAUUACGGGCU | -4.03 ± 0.25 | -2.5 ± 0.21
AAAUAGCAAUAUUACGUACG | -1.1 ± 0.11 | -1.16 ± 0.13
AUUAAGCAAUAUUACGGUCC | -0.321 ± 0.14 | -0.358 ± 0.19
GAAGAGCAAUAUUACGGAGU | -3.07 ± 0.46 | -2.47 ± 0.45
ACGGAGCAAUAUUACGACAC | -4.35 ± 0.42 | -1.94 ± 0.37
AAAUAGCAAUAUUACGUCAA | -2.07 ± 0.17 | -1.8 ± 0.18
GGAAAGCAAUAUUACGGCAU | -1.03 ± 0.13 | -0.672 ± 0.15
AAAUAGCAAUAUUACGAAGA | -2.26 ± 0.26 | -1.1 ± 0.17
ACGCAGCAAUAUUACGUCCG | -0.744 ± 0.085 | -0.408 ± 0.1
GGGCAGCAAUAUUACGAGAC | -3.12 ± 0.26 | -1.74 ± 0.19
AACCAGCAAUAUUACGUUGA | -1.65 ± 0.083 | -0.421 ± 0.087
AAGAAGCAAUAUUACGGUAC | -2.37 ± 0.19 | -2.96 ± 0.33
UUGCAGCAAUAUUACGGGUA | -1.76 ± 0.097 | -0.893 ± 0.087
CUAUAGCAAUAUUACGAUAA | -1.1 ± 0.11 | -0.839 ± 0.17
UUCUAGCAAUAUUACGAUUC | -1.98 ± 0.34 | -2.5 ± 0.49
GUUCAGCAAUAUUACGUUGU | -1.68 ± 0.096 | -0.287 ± 0.11

Sequence | self-splicing fitness (ln) (30 °C) | self-splicing fitness (ln) (37 °C)
UCAAAGCAAUAUUACGUAUC | -3.73 ± 0.23 | -2.17 ± 0.19
GUCAAGCAAUAUUACGCACU | -1.71 ± 0.062 | -0.433 ± 0.072
GUUUAGCAAUAUUACGUGCA | -0.885 ± 0.099 | -0.958 ± 0.11
ACCUAGCAAUAUUACGCACC | -1.24 ± 0.14 | 0.276 ± 0.16
GUUAAGCAAUAUUACGUUCG | -1.6 ± 0.13 | -0.376 ± 0.16
GUCCAGCAAUAUUACGCGGU | -3.19 ± 0.24 | -2.14 ± 0.17
GGACAGCAAUAUUACGAGCG | -0.482 ± 0.081 | 0.0554 ± 0.12
CGACAGCAAUAUUACGCCAU | -3.77 ± 0.3 | -1.51 ± 0.32
GUUGAGCAAUAUUACGAUAA | -3.96 ± 0.46 | -1.94 ± 0.26
AAUUAGCAAUAUUACGGCCU | -0.324 ± 0.097 | 0.38 ± 0.16
UAUUAGCAAUAUUACGAUUA | 0.102 ± 0.13 | -0.402 ± 0.12
ACUCAGCAAUAUUACGGGGA | -1.24 ± 0.074 | -0.173 ± 0.082
AAGGAGCAAUAUUACGGGCG | -4.03 ± 0.39 | -1.87 ± 0.31
UGCUAGCAAUAUUACGCCGG | -0.985 ± 0.22 | -1.88 ± 0.5
CAAGAGCAAUAUUACGGCUG | -0.309 ± 0.098 | -0.473 ± 0.16
GCCUAGCAAUAUUACGAUUC | -0.921 ± 0.076 | -0.684 ± 0.096
UGACAGCAAUAUUACGUUUA | -0.565 ± 0.061 | -0.556 ± 0.07
UGAUAGCAAUAUUACGCGUC | -3.08 ± 0.31 | –
AGUUAGCAAUAUUACGACCG | -0.776 ± 0.093 | -0.166 ± 0.13
GGCCAGCAAUAUUACGACAA | -2.78 ± 0.24 | -1.71 ± 0.19
ACUCAGCAAUAUUACGGGGG | -1.68 ± 0.11 | -1.45 ± 0.14
UUGGAGCAAUAUUACGUUGG | -1.5 ± 0.27 | -2.92 ± 0.28
GGUGAGCAAUAUUACGGAUC | -0.748 ± 0.076 | 0.263 ± 0.11
UCAAAGCAAUAUUACGUGGG | -2.85 ± 0.098 | -2.17 ± 0.12
